Experiment: soluble fraction after stress (log2 fold change); higher = more stays soluble; pooled small domains, quantitative proteomics
Conditions: stress: pH 4
Method in brief: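 Aggregation propensity is read out as the fold change in how much of each domain remains soluble after acid stress. The custom small-domain libraries were pooled, held at pH 4 and analysed with high-throughput quantitative proteomics. On the log2 scale used, higher values mean more of the domain stayed soluble.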

Sequence	soluble fraction (log2)
HMQNDILIQADEIVGDYFDMDKEALKMNKQAVIADIEKRQATAQGDEASALHYAKQKVENEFEDDGSQKD	-0.233
HMQNKFLDIVGEIEVKAVDYYLLKDTSGLVIKFPKNLVFANGLKIADNKIGLTVSLYGAWVHEET	-0.498
HMQNKYIIKQGNSGELVEVLQELLNLKQDGVFGPQTKKAVIAFQQKHKLVADGIVGPMSWRKLNFNPEELF	-0.282
HMQNLISSDEAKNIALQHANLTDNQVTFIKVSKDYDDGIHIYEVEFHYNNREYNYDINAINGTILSYEQ	-0.173
HMQNNKITIYISGAVNRPGIVTIESDKRLYDAVELLGGTTKEADLNGVNLSVRLEDEQHYIIPKIGEA	-0.491
HMQNNWFYEENGQRKGPVSENEMVQFIKSSVISHGTSVWKQGFPDWLKVENTDLRVHLDNSAP	-0.611
HMQNREQNILDGKSILDKELKRVGLLNQSAAIMAQEMKFNSQDDLFAALGSGATRIGQIINHLQKQS	0.0793
HMQNSMTTTPDVVGKTGTFAEQMLKAANLNVQFAGDSSGKVVAQDVEAGTSAAYGTIITLTMDS	0.25
HMQNVKIKAEVKGEVISPGVYELDEESRIQDLIDASGGFSDKAYYDNINLSMKLKDEMVLVVYDKDKI	-1.35
HMQPADYSDLYAAAKSAGEADMRAAFALTDKQERTAAVNAARETIKAALSEEQLADANLGSALKKLEAGV	-0.261
HMQPASPELNNQEKKVLQALPENEVIHIDELSDKIQIPVGELLTVLLSLEMKETVIQEPGKFFRRR	-0.886
HMQPDFLDAKASLALLGVRPQTLYAYVSRGAIRSVPQPGTKAHLYSRSDIERVMARAAARAG	-0.019
HMQPDYRVLYSNFSDKDGGAIVAALEKMNVPYKFSEGGSAILVPAGQVHQARLKLAADGLPK	0.205
HMQPLGHDLTERELDVLALMVTGMNNSEIADKLVVSRSTIKYHVSNILSKLQATSRTEAVAYALQQNLVH	-1.41
HMQPQIDFEIDVEVRASSLRIVAAPNSDVLVATVGRGEHVVQLTYPKDGWVMIRTADDRVGFVPESLLL	-0.254
HMQPQYSVLFSNIEEKDGGSIITLLQQGNVPYKVENGGTTILVPANRANELRLTLAAQGLPK	0.223
HMQPVLSDAEVNDLKNIAGGERGYNQLMDWAGNNLTAQDAKSYDDVLATGNKAAISFAIKALMGQYEDAN	-0.453
HMQQEAVNLVQSRGQQAIEPVHIMQGVMKVGENVTNFIFQKLGMNGQQVALVVDKQIDSLPKVSGGEPYL	-0.0637
HMQQEAVSGKLLQLDLAKKEGRLSTDLGREVLFHIPKPELFVHLSVGQRIIIKLDAGQEAVGV	0.0773
HMQQELDAFKLLITVSGVGPKAAMAVLSVLPPDRLSIAVSSGDVKSIQSAQGVGKKTAERIVLELKDKM	-0.976
HMQQIEIEEPITVKNLSAVAGLKASEIIAKLMKLGVMSTINQVMERQHAEEIAGEYGFELVVK	-0.154
HMQQISDPQVLRPMAEEVLHQSQKVVQDYKGGNKNAFHALVGQMMKKTQGKGNPQVIGQVLSELLDE	-0.284
HMQQKNWIVRDGDGKIYGPFTTEQVLVQIDRGYFVGGEEVALYPGGRWIAISGAPEFYDRLLDALAMEG	-1.29

Sequence	soluble fraction (log2)
HMQQQLLHIVFGGELKDVTGIEFEDLSKMDFVGAFSNYKDAYDAWKSAAQRTVDHAEMRYFILHAHKLL	-2.31
HMQQRTVEHVDTAVEALALSIGERAGVDLPYMAHLTGKTQEDLIEDLTGVIFPVPGTEPLRYVTADDYLS	-0.835
HMQQSVSSLVRRYMLQTIPGINFSLKSTALALNMSDRTLQRKLLSENTSYQIILDDVRKELAIKYLKE	-0.43
HMQQVIQSGQKVQLMATDGSFQVSAEGVALKNGSVGEVIGVRMPSGRVISGVVSASGAVEVR	0.0769
HMQQVLGDVNEDDKVDFLDAIVVLRHDAEIIQLTDNQMKAAEVNKDGKVDFLDAIMILRYDAEIIGS	-0.196
HMQRDDMQIDRLIQIVFLLLSRNNLTAKQLAEELGVSTRTIYRDINILSVAGIPITSQKGYGGGLSLLQG	-0.261
HMQRDELRYDQFLTALQNKEFTQLNVRFDDYTYLVTGTFQSGRPFSTRGPVSEEFIRLIESSGVQVTWLPM	-1.28
HMQRDERYVYHTVLAGETIYSLSRKFNVTMDELLESNPALRSGVLTTGSEIRVLKAQMAQNFD	0.383
HMQRQGTVATQQTPLNIRSQPSLSAQVIGQAPKGATVAILGESGDWYQIRYQNITGYSSKQYI	≥ 0.43
HMQRSVEDVFVQLRNGMDTYDMTQIEDALRILHGMELSTAQRDLLDKVQEAYNDLEYETGAALLAGFERIK	-0.981
HMQRYFINEPVPEDQRLVLPKDIAHHLVDVLRAEQNDELEVALNDQKVYLARLISLNPATVELQSDLG	-0.176
HMQRYFLEEAYQPSEKFELSAEAFHHIVHVMRMKPKDRVYLAFSDQQVIIAEITEITEEKVYLTEIEKEE	-1.63
HMQRYYDVLGLQKGVSPEELKKTYRELSKKYHPDAHHNSPLRDLAEAKFKEINEAYEKIKEFLDNNF	-0.597
HMQSAKLSYSDFMQKVNAGDVVSVKIQGPKISGVTTGGGKFMTYAPEDPTLVSTLMQKKVEVMAEP	0.173
HMQSAMALTKDLIEQQGKYYHRGQPFTGVGFAKNKKGKFVTEEPFKNGLLHGKRVNYDHNGHVLAREK	-0.12
HMQSEESTHIGERMLNQALRAMHVEPSAVKEKQWEKLIRDYSVKNKQDILTDIGLGKRQSVMVAHQLLAI	-0.028
HMQSEISRIGRILKERRLQLGYTQEYAAEKAGISYSYYTKIERGQQLPSLEVAMVLSKTFSLSMDRWL	-0.599
HMQSFIEELLPVVDNFERSLAVVDPSDEIKNFLKGYEMIYNQLMEVLKSQGVEVIKTEGEEFDPNFHQA	-0.776
HMQSHIVPDVKSQHIAQAKALLESKQMKAVVIDSNFVKGLPAGIVLDQTPIGGARVKENRTIYLTINTL	0.0867
HMQSMEIDENEIPSIDKLSEYIEYFKRIYNALFDDKQLAITNIDVLERHFANNFNTLRFKMDE	-0.534
HMQSNDAGELEAVVKGIIDANPKVVADYLAGNQKVVSFFVGQAMKATKGKANPKMVSEILGKLL	≥ 0.43
HMQSQIAQLYNPLLGYVKKRINSREDAEDLTQDIFLKLSKSNKDGVDNLKSWLYTIAKNTITDYYRKKKII	-0.0414
HMQSREISYSDFVASVERGEVATVILDGENIRFKGGDNVEYVTVRPADTNVTDLLIENQVVVRAEK	-0.824

Sequence	soluble fraction (log2)
HMQSTVSTHQKTLALDTAQSGIPVFPVSSTHKRPLTDHGYKDATADADAVRKIWQQFPSAFV	0.22
HMQSVKTQPLRDWLLAHFDKPYPDDEDKVRLAEASGMTRAQVGNWFINARVRTWRPMVLDLGEEIERESV	-0.521
HMQTEFVISSGEQPKRLDVFLLQREPYLSRAALQRMIAAGWVRVNNHLAKSSQRIKAGDVIVFD	0.0697
HMQTFGTMIAALRKEQGMTQLELAEKMGVTDKAVSKWERDLSFPDVNSLPKLAEIFHVSVDEL	0.216
HMQTLGADLRALRKARGLTLTDMAETLGRSVGWLSQVERDLSEPSITDLRHMARTLGVSVSMLFS	-0.553
HMQTLQNNLKQIRSRVGLTQGELASRAGISRQAYSTLESGNANPSTEVSLRLAEALNERIESLFFLANQ	-0.846
HMQTSETVYTTDKVNVRAGADTSSDKLGSVEKGTSLTRTGTDGDWSIIDYNGTTGYIKSEYLSATAPE	0.316
HMQTTKTGTITASSLYVRSGASTSHKVLGTVSKGKTVQIKDTQDGWHKISYNGDHGWVSGKYVSTT	≥ 0.43
HMQTTVHLSPEEMVIMNALKQESPIDLPILRAQVEMSNKLWDTSMKNLSKLGQLKVEKIGEQVSVSLI	≥ 0.43
HMQVAPDLMQRLTSQGHVDEKLSDALVHARQITNFEGRRRQMQFIGKLMRKLSEESIEAVKDALNEQRM	-0.244
HMQVDENNINKRIDKYLSENTEYSRSTIQKMIDNGNITVNSKPTKSSYKLELNDIITIDNNFKE	-0.0731
HMQVEYTRGELIQDLEGGKIVYAGISPSRETPTGEVNFILDSGLTRTLYVTDVSEIEQLLISYDIDPEVKK	-1.63
HMQVFDSNEIDEVVKKVIENNPQAVADFKKGKSNALQFLAGQVMRETKGRFNPNVVQERIRLLLT	0.256
HMQVLLTRREKEILKLIAEGLTSAEIGKRLFISTTTVDTHRKHLLEKLKAGNTAILIKTAVQLDLI	-0.223
HMQVPWYQRLKEKRLEYGVSQNKLATHIGISRQYMSEIETGKVTPSDSLQATLFDILEQFNPDA	-0.74
HMQVRVERSRDKVVISGVNYYIHPVRKGETVYSIARAYGITTQDLVRENPSAAEGLKEGQSIRIPERLVD	0.22
HMQVSDEGPIKAILQEVLDKSPTQLADYASGKVKLRQYFFGEAMKALKGKANPQVINKLLDEMLPPVAA	-0.178
HMQVSDVTELRTILEKVITENESVATEFKEGKDAAMNFLVGQGMKATRGAADPALLKEIITGIL	-0.358
HMQVSITGYLGGEKIGLFDDAKFKALAAKQGIAIDYRKAGSPAMMDADRKGMDYLFPSSRAAVEYGNAKGV	0.144
HMQVTDTGTIEGEIDKVLAANPDRVTEYHDGKEKILGWFVGQVMQTTKGKANPQMVNQLFLEKLK	-0.00465
HMQVTPQVLRLLDVLGDKELSLRQIAEALGLSDRKNIMRNYVVPALDSGRVVRTVPNKPNSRFQKYRK	0.0808
HMQYDALVLNLLQEKNLTSESLKDAQRAFAKSHNLSTLPSKSQILQAYFQLLEQGKIEKNPDFELLL	0.0152
HMQYFDIETEIQKFIKSENNLSDFDKETLQSFLYQLSKGSPEENTAKKVVDILNKFLPLTTAIINMIKALT	-0.381

Source: the domain aggregation screens of Martell et al. (2025)
